Literature values as cited in patent US20260070964A1, “IL-12 GENE THERAPY AND ANTI-VEGF COMBINATION FOR TREATING CANCER” (IMUNON, INC., priority 2022, published 2026).

Columns and labels:
established tumors = details: animal models
[1] = several experimental trials and an initial human trial
[2] = human clinical trial

Substance: recombinant IL-12: recombinant interleukin-12 protein
- antitumor effects (established tumors): profound T-cell mediated antitumor effects causing regression of established tumors
- toxicity on systemic administration [1]: dose limiting toxicity
- toxicity on intraperitoneal administration [2]: Dose limiting toxicity was also observed
